Measurements from patent publication US20090098142A1 (published 2009).
Blank lines part the entries; values can stand above or below the binder they belong to.

Columns and labels:
native human IL-13 [1] = biological target: T1, native human IL-13 (human, UniProt P35225 34-146); assay: cell-based or functional assay
[2] = biological target: T2, cynomolgus monkey IL-13 (NHP IL-13) (cynomolgus monkey, UniProt Q5I6E4 21-132 (Macaca thibetana entry)); assay: sandwich ELISA, capture antibody
T2 construct: Also used here for the IL-13 found in cynomolgus monkey serum; also called non-human primate IL-13; cynomolgus IL-13
T2 chain: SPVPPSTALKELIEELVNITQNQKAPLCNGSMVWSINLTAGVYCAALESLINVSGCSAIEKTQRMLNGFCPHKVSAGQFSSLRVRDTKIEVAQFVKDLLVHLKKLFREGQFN
Text: FIG. 20 is a series of bar graphs depicting the increases in serum IL-13 levels in individual cynomolgus monkeys treated with humanized MJ2-7 (hMJ2-7v2-11). The label in each panel (e.g., 120-452) corresponds to the monkey identification number. The “pre” sample was collected prior to administration of the antibody. The time “0” was collected 24-hours post-antibody administration, but prior to Ascaris challenge. The remaining time points were post-Ascaris challenge. The assays used to detect IL-13 levels are able to detect IL-13 in the presence of hMJ2-7v2-11 or hmAb13.2v2 antibodies. More specifically, ELISA plates (MaxiSorp; Nunc, Rochester, N.Y.), were coated overnight at 4° C. with 0.5 ug/ml mAb13.2 in PBS. Plates were washed in PBS containing 0.05% Tween-20 (PBS-Tween). NHP IL-13 standards, or serum dilutions from cynomolgus monkeys, were added and incubated for 2 hours at room temperature. Plates were washed, and 0.3 ug/ml biotinylated MJ1-64 (referred to herein as C65 antibody) was added in PBS-Tween. Plates were incubated 2 hours, room temperature, washed, and binding detected using HRP-streptavidin (Southern Biotechnology Associates) and Sure Blue substrate (Kirkegaard and Perry Labs). For detection of IL-13 in the presence of mAb13.2, the same protocol was followed, excepts that ELISA plates were coated with 0.5 ug/ml MJ2-7.

[3] = biological target: T2, cynomolgus monkey IL-13 (NHP IL-13); assay: cell-based or functional assay
[4] = biological target: T3, NHP-IL-13 in a complex with immobilized sIL-13Rα2-Fc (cynomolgus monkey; human, UniProt Q14627 27-343, limits assumed); assay: SPR (BIACORE), sIL-13Rα2-Fc amine-coupled to a CM5 chip, NHP-IL-13 injected, then antibody
T3 construct: not shown: human IgG1 Fc tail
Procedure: sIL-13Rα2-Fc was directly coated onto a CM5 chip by standard amine coupling. NHP-IL-13 at 100 nM concentration was injected, and its binding to the immobilized IL-13Rα2-Fc was detected by BIACORE™. An additional injection of 100 nM of anti IL-13 antibodies was added, and changes in binding were monitored.

native human IL-13 [5] = biological target: T1, native human IL-13; assay: cell-based or functional assay; remark: listed apart in the source
FLAG-tagged NHP IL-13 = biological target: T4, FLAG-tagged NHP IL-13 (cynomolgus monkey, UniProt Q5I6E4 21-132 (Macaca thibetana entry)); assay: competition ELISA against biotinylated mouse MJ 2-7
T4 construct: also called NHP IL-13-FLAG; FLAG NHP IL-13; not shown: FLAG tag
T4 chain: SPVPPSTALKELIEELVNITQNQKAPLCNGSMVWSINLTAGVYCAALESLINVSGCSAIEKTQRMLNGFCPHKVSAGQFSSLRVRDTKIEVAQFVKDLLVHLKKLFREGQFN
Procedure: The ability of fully humanized MJ 2-7 mAb (V1, V2 v2) to compete with biotinylated mouse MJ 2-7 Ab for binding to NHP IL-13-FLAG was evaluated by ELISA. The microtiter plates (Costar) were coated with 1 μg/ml of anti-FLAG monoclonal antibody M2 (Sigma). The FLAG NHP IL-13 protein at concentration of 10 ng/ml was mixed with 10 ng/ml of biotin labeled mouse MJ 2-7 antibody and various concentrations of unlabeled mouse and humanized MJ 2-7 antibody. The mixture was incubated for 2 hours at room temperature and then added to the anti-FLAG antibody-coated plate. Binding of FLAG NHP-IL-13/bioMJ2-7 Ab complexes was detected with streptavidin-HRP and 3,3′,5,5′-tetramethylbenzidine (TMB). […] BIACORE™ analysis also confirmed that NHP IL-13 had rapid binding to and slow dissociation to immobilized h1uMJ 2-7 v2.11.

[6] = biological target: T2, cynomolgus monkey IL-13 (NHP IL-13); assay: SPR (BIACORE), Kd=kd/ka from the kinetic rate constants
Procedure: (§1) For kinetic analysis, the monoclonal antibody hMJ2-7 V2-11 was captured onto the anti IgG antibody surface by injecting 40 μl of a 1 μg/ml solution. The net difference between the baseline and the point approximately 30 seconds after completion of injection was taken to represent the amount of target bound. Solutions of NHP-IL-13 at 600, 200, 66.6, 22.2, 7.4, 2.5, 0.8, 0.27, 0.09 and 0 nM concentrations were injected in triplicate at a flow rate of […] for 2 minutes, and the amount of bound material as a function of time was recorded (FIG. 8). The dissociation phase was monitored in HBS/EP buffer (10 mM HEPES, pH 7.4, containing 150 mM NaCl, 3 mM EDTA and 0.005% (v/v) Surfactant P20) for 5 minutes at the same flow rate followed by two 5 μl injections of glycine, pH 1.5, to regenerate a fully active capturing surface. All kinetic experiments were done at 22.5° C. in HBS/EP buffer. Blank and buffer effects were subtracted for each sensorgram using double referencing.

[7] = biological target: T2, cynomolgus monkey IL-13 (NHP IL-13); assay: SPR (BIACORE), antibody captured on goat anti-human IgG Fc, NHP-IL-13 at 0.09-600 nM injected, 1:1 model, 22.5 C
Procedure: as §1

T1 sequence (P35225 other isoform, or with tags, fused parts or gaps): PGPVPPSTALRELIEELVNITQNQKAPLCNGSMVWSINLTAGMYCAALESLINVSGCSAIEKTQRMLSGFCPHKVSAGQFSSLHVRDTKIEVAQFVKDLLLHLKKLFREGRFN

B3: mouse monoclonal antibody MJ 2-7 (antibody, mouse IgG1, V domains shown)
VH: EVQLQQSGAELVKPGASVKLSCTGSGFNIKDTYIHWVKQRPEQGLEWIGRIDPANDNIKYDPKFQGKATITADTSSNTAYLQLNSLTSEDTAVYYCARSEENWYDFFDYWGQGTTLTVSS
VL: DVLMTQTPLSLPVSLGDQASISCRSSQSIVHSNGNTYLEWYLQKPGQSPKLLIYKVSNRFSGVPDRFSGSGSGTDFTLKISRVEAEDLGVYYCFQGSHIPYTFGGGTKLEIK
notes: also called mAb7.1.1; murine MJ2-7
CD23 expression assay, non-human primate IL-13 at 1 ng/ml, IC50 [3]: ~242 pM | STAT6 phosphorylation assay in HT-29 cells, 0.3 ng/ml native human IL-13, IC50 (native human IL-13 [1]): 480 pM | STAT6 phosphorylation assay, native human IL-13 at 1 ng/ml, IC50 (native human IL-13 [1]): ~293 pM | tenascin production assay in BEAS-2B cells, 3 ng/ml native human IL-13, IC50 (native human IL-13 [1]): ~100 pM | binding result [4]: no binding (tested: 100 nM)

B5: humanized MJ 2-7 V2.4 (VH V2.4 / VL V2) (antibody, V domains shown)
VH: EVQLVESGGGLVQPGGSLRLSCAASGFNIKDTYIHWVRQAPGKGLEWVGRIDPANDNIKYDPKFQGRFTISRDNAKNSLYLQMNSLRAEDTAVYYCARSEENWYDFFDYWGQGTLVTVSS
VL: DIQMTQSPSSLSASVGDRVTITCRSSQSIVHSNGNTYLEWYQQKPGKAPKLLIYKVSNRFSGVPSRFSGSGSGTDFTLTISSLQPEDFATYYCFQGSHIPYTFGGGTKVEIKR
Native hIL-13 STAT6 assay IC 50, nM (native human IL-13 [5]): 17.5 nM

B8: humanized MJ 2-7 V2.2 (VH V2.2 / VL V2) (antibody, V domains shown)
VH: EVQLVESGGGLVQPGGSLRLSCAASGFNIKDTYIHWVRQAPGKGLEWVARIDPANDNIKYDPKFQGKATISRDNAKNSLYLQMNSLRAEDTAVYYCARSEENWYDFFDYWGQGTLVTVSS
VL: DIQMTQSPSSLSASVGDRVTITCRSSQSIVHSNGNTYLEWYQQKPGKAPKLLIYKVSNRFSGVPSRFSGSGSGTDFTLTISSLQPEDFATYYCFQGSHIPYTFGGGTKVEIKR
Native hIL-13 STAT6 assay IC 50, nM (native human IL-13 [5]): > 100 nM

B9: humanized MJ 2-7 V2 (CDR grafted; VH V2 / VL V2) (antibody, human IgG1, V domains shown)
VH: EVQLVESGGGLVQPGGSLRLSCAASGFNIKDTYIHWVRQAPGKGLEWVARIDPANDNIKYDPKFQGRFTISRDNAKNSLYLQMNSLRAEDTAVYYCARSEENWYDFFDYWGQGTLVTVSS
VL: DIQMTQSPSSLSASVGDRVTITCRSSQSIVHSNGNTYLEWYQQKPGKAPKLLIYKVSNRFSGVPSRFSGSGSGTDFTLTISSLQPEDFATYYCFQGSHIPYTFGGGTKVEIKR
notes: Expressed in COS cells with human IgG1 (IgG1mut) and human kappa constant regions; also called hMJ2-7 V2; huMJ 2-7 V2
Native hIL-13 STAT6 assay IC 50, nM (native human IL-13 [5]): > 100 nM | binding result (FLAG-tagged NHP IL-13): binds

B10: humanized MJ 2-7 V2.7 (VH V2.7 / VL V2) (antibody, V domains shown)
VH: EVQLVESGGGLVQPGGSLRLSCAASGFNIKDTYIHWVRQAPGKGLEWVGRIDPANDNIKYDPKFQGRFTISADNAKNSLYLQMNSLRAEDTAVYYCARSEENWYDFFDYWGQGTLVTVSS
VL: DIQMTQSPSSLSASVGDRVTITCRSSQSIVHSNGNTYLEWYQQKPGKAPKLLIYKVSNRFSGVPSRFSGSGSGTDFTLTISSLQPEDFATYYCFQGSHIPYTFGGGTKVEIKR
Native hIL-13 STAT6 assay IC 50, nM (native human IL-13 [5]): 1.7 nM

B11: humanized MJ 2-7 V2.11 IgG1 with a mutated CH2 domain (antibody, V domains shown)
VH: EVQLVESGGGLVQPGGSLRLSCAASGFNIKDTYIHWVRQAPGKGLEWIGRIDPANDNIKYDPKFQGRFTISADNAKNSAYLQMNSLRAEDTAVYYCARSEENWYDFFDYWGQGTLVTVSS
VL: DIQMTQSPSSLSASVGDRVTITCRSSQSIVHSNGNTYLEWYQQKPGKAPKLLIYKVSNRFSGVPSRFSGSGSGTDFTLTISSLQPEDFATYYCFQGSHIPYTFGGGTKVEIKR
notes: VH V2.11 (back mutations V48I); A49G; R72A; L79A; human IgG1 with mutated CH2 and human kappa; also called hMJ2-7 V2-11; huMJ 2-7 V2.11
STAT6 phosphorylation assay in HT-29 cells, 0.3 ng/ml native human IL-13, IC50 (native human IL-13 [1]): 520 pM | Kd [6]: 43 pM | koff [7]: 0.000889 s⁻¹ | kon [7]: 2.05e+07 M⁻¹ s⁻¹

Results, then the binder that gave them:

STAT6 phosphorylation assay in HT-29 cells, 0.3 ng/ml native human IL-13, IC50 (native human IL-13 [1]): 330 pM
B1: sIL-13Rα2-Fc (soluble human IL-13 receptor alpha2 with a human IgG1 Fc tail) (Fc fusion, UniProt Q14627 27-343, looked up, not shown: a dimerising Fc or GST)
chain: DTEIKVNPPQDFEIVDPGYLGYLYLQWQPPLSLDHFKECTVEYELKYRNIGSETWKTIITKNLHYKDGFDLNKGIEAKIHTLLPWQCTNGSEVQSSWAETTYWISPQGIPETKVQDMDCVYYNWQYLLCSWKPGIGVLLDTNYNLFYWYEGLDHALQCVDYIKADGQNIGCRFPYLEASDYKDFYICVNGSSENKPIRSSYFTFQLQNIVKPLPPVYLTFTRESSCEIKLKWSIPLGPIPARCFDYEIEIREDDTTLVTATVENETYTLKTTNETRQLCFVVRSKVNIYCSDDGIWSEWSDKQCWEGEDLSKKTLLR

binding result [2]: binds
B2: monoclonal antibody 13.2 (mAb13.2) (antibody, mouse IgG1, V domains shown)
VH: EVKLVESGGGLVKPGGSLKLSCAASGFTFISYAMSWVRQTPEKRLEWVASISSGGNTYYPDSVKGRFTISRDNARNILYLQMSSLRSEDTAMYYCARLDGYYFGFAYWGQGTTVTVSS
VL: DIVLTQSPASLAVSLGQRATISCKASESVDNYGKSLMHWYQQKPGQSPKLLIYRASNLESGIPARFSGSGSRTDFTLTINPVEADDVATYYCQQSNEDPWTFGGGTKLEIK

fold decrease in monocyte CD23 expression assay, 3 ng/ml NHP IL-13; activity against that of MJ2-7 and sIL-13Rα2-Fc [3]: ~20 fold | fold decrease in STAT6 phosphorylation assay in HT-29 cells, 0.3 ng/ml native human IL-13; activity against that of MJ2-7 (native human IL-13 [1]): ~20 fold
B4: mouse monoclonal antibody C65 (antibody, V domains shown)
VH: QVQLKESGPGLVAPSQSLSITCTVSGFSLTGYGVNWVRQPPGKGLEWLGIIWGDGSTDYNSALKSRLIINKDNSKSQVFLKMNSLQTDDTARYFCARDKTFYYDGFYRGRMDYWGQGTSVTVSS
VL: DVQMIQSPSSLSASLGDIVTMTCQASQGTSINLNWFQQKPGKAPKLLIFGASNLEDGVPSRFSGSRYGTNFTLTISSLEDEDMATYFCLQHSYLPWTFGGGTKLEIK

Native hIL-13 STAT6 assay IC 50, nM (native human IL-13 [5]): 2.8 nM
B6: humanized MJ 2-7 V2.1 (VH V2.1 / VL V2) (antibody, V domains shown)
VH: EVQLVESGGGLVQPGGSLRLSCAASGFNIKDTYIHWVRQAPGKGLEWIGRIDPANDNIKYDPKFQGRFTISRDNAKNSLYLQMNSLRAEDTAVYYCARSEENWYDFFDYWGQGTLVTVSS
VL: DIQMTQSPSSLSASVGDRVTITCRSSQSIVHSNGNTYLEWYQQKPGKAPKLLIYKVSNRFSGVPSRFSGSGSGTDFTLTISSLQPEDFATYYCFQGSHIPYTFGGGTKVEIKR

Native hIL-13 STAT6 assay IC 50, nM (native human IL-13 [5]): 1.75 nM
B7: humanized MJ 2-7 V2.5 (VH V2.5 / VL V2) (antibody, V domains shown)
VH: EVQLVESGGGLVQPGGSLRLSCAASGFNIKDTYIHWVRQAPGKGLEWVARIDPANDNIKYDPKFQGKATISADNAKNSLYLQMNSLRAEDTAVYYCARSEENWYDFFDYWGQGTLVTVSS
VL: DIQMTQSPSSLSASVGDRVTITCRSSQSIVHSNGNTYLEWYQQKPGKAPKLLIYKVSNRFSGVPSRFSGSGSGTDFTLTISSLQPEDFATYYCFQGSHIPYTFGGGTKVEIKR
